Measured values reported in article PMC10514464 (iScience, 2023).
Where no end group is shown, it is not given here. The star is where a group is joined. FITC = O=C1OC2(c3ccc(O)cc3Oc3cc(O)ccc32)c2ccc(NC(=S)*)cc21

T1: FITC-labeled pepHePTP
T1 peptide: {FITC}-RLQERRGSNVALMLDV

B1: doubly-phosphorylated wild-type rat ERK2 oxidized with H2O2 (sulfenylated on C159) (enzyme)
chain: MAAAAAAGPEMVRGQVFDVGPRYTNLSYIGEGAYGMVCSAYDNLNKVRVAIKKISPFEHQTYCQRTLREIKILLRFRHENIIGINDIIRAPTIEQMKDVYIVQDLMETDLYKLLKTQHLSNDHICYFLYQILRGLKYIHSANVLHRDLKPSNLLLNTTCDLKICDFGLARVADPDHDHTGFLTEYVATRWYRAPEIMLNSKGYTKSIDIWSVGCILAEMLSNRPIFPGKHYLDQLNHILGILGSPSQEDLNCIINLKARNYLLSLPHKNKVPWNRLFPNADSKALDLLDKMLTFNPHKRIEVEQALAHPYLEQYYDPSDEPIAEAPFKFDMELDDLPKEKLKELIFEETARFQPGYRS

Key:
FITC-labeled pepHePTP = target: T1, FITC-labeled pepHePTP; experiment: fluorescence polarisation
[1] = target: B1; experiment: SPR

| fold increase in KD,app against untreated ERK2 (FITC-labeled pepHePTP) [fold] | Kd [1] [µM] | Binder |
| --- | --- | --- |
| ~100 |  | B1 |
|  | 58 | Ac-FQRKTLQRRNLKGLNLNL-NH2 [Lig-D peptide] |
